Reference: patent US20110124010A1

Key:
[1] = biological target: Myelin basic protein (MBP) (human) (UniProt P02686); assay: flow cytometry, intracellular staining of CD14+ macrophages from CSF; isotype control background
[2] = biological target: Myelin basic protein (MBP) (human) (UniProt P02686); assay: flow cytometry, intracellular staining of CD14+ macrophages from peripheral blood; isotype control background

UniProt P02686, sequence (P02686 whole entry): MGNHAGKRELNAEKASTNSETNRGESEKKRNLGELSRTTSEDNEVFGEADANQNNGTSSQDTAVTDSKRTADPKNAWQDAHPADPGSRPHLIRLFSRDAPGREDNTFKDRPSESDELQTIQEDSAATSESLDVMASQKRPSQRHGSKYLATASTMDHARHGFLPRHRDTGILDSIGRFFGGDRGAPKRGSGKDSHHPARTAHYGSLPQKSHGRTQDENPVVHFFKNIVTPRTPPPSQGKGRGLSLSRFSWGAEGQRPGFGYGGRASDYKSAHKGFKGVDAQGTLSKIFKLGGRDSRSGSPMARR

Geometric Mean FI [1]: 292
Mean FI [1]: 328
Geometric Mean FI [2]: 766
Mean FI [2]: 783
Substance: Non-specific isotype specific antibody (Rabbit IgG) from Epitomics
